Test results taken from patent US20240174763A1 (NOVOPROTEIN SCIENTIFIC, published 2024).
Where two headings read alike, the source gives them in different places. One block for each molecule: values may come before it.

What was measured:
[1] = biological target: human CD73 on SK-OV-3 cells (human ovarian adenocarcinoma cells) (human) (UniProt P21589); experiment: flow cytometry on SK-OV-3 cells
[2] = biological target: human CD73 on SK-OV-3 cells (human ovarian adenocarcinoma cells) (human) (UniProt P21589); experiment: flow cytometry on SK-OV-3 cells; remark: listed apart in the source
[3] = biological target: human CD73 on SK-OV-3 cells (human ovarian adenocarcinoma cells) (human) (UniProt P21589); experiment: flow cytometry on SK-OV-3 cells; remark: listed apart in the source
[4] = biological target: monkey CD73 on CHOK1-cynoCD73 cells (monkey); experiment: flow cytometry on CHOK1-cynoCD73 cells
[5] = biological target: human CD73 on SK-OV-3 cells (human ovarian adenocarcinoma cells) (human) (UniProt P21589); experiment: flow cytometry on SK-OV-3 cells, anti-hFc-APC
[6] = biological target: human CD73 on SK-OV-3 cells (human ovarian adenocarcinoma cells) (human) (UniProt P21589); experiment: flow cytometry on SK-OV-3 cells, anti-hFc-APC; remark: listed apart in the source
[7] = biological target: human CD73 on SK-OV-3 cells (human ovarian adenocarcinoma cells) (human) (UniProt P21589); experiment: flow cytometry on SK-OV-3 cells, anti-hFc-APC; remark: listed apart in the source
[8] = biological target: T1, human CD73 on SK-OV-3 cells (human ovarian adenocarcinoma cells) (human, UniProt P21589 27-549); experiment: cell-based or functional assay
T1 sequence (looked up): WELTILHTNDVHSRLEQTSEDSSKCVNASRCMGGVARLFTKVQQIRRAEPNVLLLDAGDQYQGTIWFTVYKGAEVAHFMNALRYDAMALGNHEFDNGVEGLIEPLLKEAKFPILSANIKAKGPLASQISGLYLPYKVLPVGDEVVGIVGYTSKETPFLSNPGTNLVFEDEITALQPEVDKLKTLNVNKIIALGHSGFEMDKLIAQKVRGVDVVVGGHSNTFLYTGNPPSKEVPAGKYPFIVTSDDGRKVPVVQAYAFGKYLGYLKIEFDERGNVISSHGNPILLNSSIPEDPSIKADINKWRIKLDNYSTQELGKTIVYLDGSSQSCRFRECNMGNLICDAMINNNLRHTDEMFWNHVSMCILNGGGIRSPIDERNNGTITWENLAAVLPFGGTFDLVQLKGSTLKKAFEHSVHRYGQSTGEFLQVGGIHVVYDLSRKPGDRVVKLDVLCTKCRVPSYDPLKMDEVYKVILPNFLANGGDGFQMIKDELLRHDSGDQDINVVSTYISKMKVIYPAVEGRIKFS

[9] = biological target: T2, monkey CD73 on CHOK1-cynoCD73 cells (monkey, UniProt A0A2K5V5U7 27-549, GPI anchor at the C-terminus of the mature chain (paragraph 3 says CD73 is GPI-anchored). The propeptide 550-574 is removed.); experiment: cell-based or functional assay
T2 sequence: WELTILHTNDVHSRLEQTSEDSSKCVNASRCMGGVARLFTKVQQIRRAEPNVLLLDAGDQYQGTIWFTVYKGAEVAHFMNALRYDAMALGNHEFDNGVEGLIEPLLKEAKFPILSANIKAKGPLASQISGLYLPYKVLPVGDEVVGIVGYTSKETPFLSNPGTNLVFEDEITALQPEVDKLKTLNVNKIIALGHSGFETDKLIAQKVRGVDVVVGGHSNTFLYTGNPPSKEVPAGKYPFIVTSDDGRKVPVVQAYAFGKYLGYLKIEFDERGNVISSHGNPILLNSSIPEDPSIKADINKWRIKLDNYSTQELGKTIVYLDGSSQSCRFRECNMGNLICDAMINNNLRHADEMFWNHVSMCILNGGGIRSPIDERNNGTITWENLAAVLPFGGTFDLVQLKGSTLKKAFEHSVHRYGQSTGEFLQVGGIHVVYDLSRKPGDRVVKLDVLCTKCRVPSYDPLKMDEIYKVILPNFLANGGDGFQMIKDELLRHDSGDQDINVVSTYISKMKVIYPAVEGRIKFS

[10] = biological target: T1, human CD73 on SK-OV-3 cells (human …); experiment: flow cytometry on SK-OV-3 cells
Experimental: 4×10⁵ cells SK-OV-3 were taken, triple gradient (0.009-20 μg/ml) dilution of CQ137 protein was added, incubated for 1 h, washed three times with PBS, Anti-hFC-APC (purchased from Jackson immunology) was added, and detected by flow cytometry.

[11] = biological target: T2, monkey CD73 on CHOK1-cynoCD73 cells; experiment: flow cytometry on CHOK1-cynoCD73 cells
Experimental: The full length of monkey CD73 was constructed on a eukaryotic expression vector containing NEO resistance, CHO-K1 cells were transfected, G418 was used for screening to obtain a CHOK1-cynoCD73 cell strain. 4×10⁵ CHOK1-cynoCD73 cells were taken and a gradient diluted CQ137 protein was added, after incubation was performed for 1 h, the cells were washed with PBS for three times, […] (purchased from Jackson Immunology) was added, and detected by flow cytometry.

[12] = biological target: T3, recombinant monkey CD73 protein (monkey, UniProt A0A2K5V5U7 27-549); experiment: ELISA, plate coated with recombinant monkey CD73 at 3 µg/mL
T3 construct: Monkey species not further named for the recombinant protein (the cell line is called cynoCD73)
T3 sequence: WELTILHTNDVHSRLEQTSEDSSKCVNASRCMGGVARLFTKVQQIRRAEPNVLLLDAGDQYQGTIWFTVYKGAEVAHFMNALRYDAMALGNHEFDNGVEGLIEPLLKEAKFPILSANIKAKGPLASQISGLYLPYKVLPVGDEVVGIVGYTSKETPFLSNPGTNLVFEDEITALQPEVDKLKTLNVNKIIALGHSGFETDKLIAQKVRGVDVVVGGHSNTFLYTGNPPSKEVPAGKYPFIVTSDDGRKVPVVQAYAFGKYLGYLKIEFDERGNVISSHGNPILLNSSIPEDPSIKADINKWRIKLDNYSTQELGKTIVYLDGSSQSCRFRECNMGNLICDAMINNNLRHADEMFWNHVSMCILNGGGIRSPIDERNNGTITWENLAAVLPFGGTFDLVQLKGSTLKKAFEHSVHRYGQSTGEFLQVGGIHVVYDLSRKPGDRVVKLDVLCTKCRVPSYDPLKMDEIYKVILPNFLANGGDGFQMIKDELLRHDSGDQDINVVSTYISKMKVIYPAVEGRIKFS
Experimental: (§1) The recombinant monkey CD73 protein was packaged in plates according to a 3 μg/mL and a gradient diluted CQ137 was added.

[13] = biological target: T3, recombinant monkey CD73 protein; experiment: ELISA, recombinant monkey CD73 coated at 3 ug/mL
Experimental: as §1

[14] = biological target: T4, recombinant human CD73 protein (human, UniProt P21589 27-547, limits assumed); experiment: Biacore (SPR), CQ137 immobilised, CD73 protein 2.5 nM-40 nM
T4 construct: Bought recombinant protein; the assays only say recombinant human CD73; also called rhCD73; recombinant hCD73 protein
T4 sequence (looked up): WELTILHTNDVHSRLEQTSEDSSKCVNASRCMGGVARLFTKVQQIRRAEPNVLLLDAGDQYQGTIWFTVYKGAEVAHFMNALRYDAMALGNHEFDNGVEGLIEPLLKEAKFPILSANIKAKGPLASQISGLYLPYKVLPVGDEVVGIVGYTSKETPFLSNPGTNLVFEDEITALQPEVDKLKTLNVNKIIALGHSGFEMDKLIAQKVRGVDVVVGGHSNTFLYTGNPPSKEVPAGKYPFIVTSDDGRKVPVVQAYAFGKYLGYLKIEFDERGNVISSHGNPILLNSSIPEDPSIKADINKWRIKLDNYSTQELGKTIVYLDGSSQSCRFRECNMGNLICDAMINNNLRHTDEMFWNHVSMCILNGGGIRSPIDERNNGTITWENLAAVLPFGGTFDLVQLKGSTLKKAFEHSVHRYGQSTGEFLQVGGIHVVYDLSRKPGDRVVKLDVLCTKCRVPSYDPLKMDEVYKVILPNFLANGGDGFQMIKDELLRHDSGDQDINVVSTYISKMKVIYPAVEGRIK
Experimental: The affinity of CQ137 to recombinant hCD73 protein was determined by Biacore, CQ137 was cured.

[15] = biological target: T4, recombinant human CD73 protein; experiment: ELISA, recombinant human CD73
[16] = biological target: T3, recombinant monkey CD73 protein; experiment: ELISA, recombinant monkey CD73
[17] = biological target: T1, human CD73 on SK-OV-3 cells (human …); experiment: flow cytometry on SK-OV-3 cells; remark: listed apart in the source
[18] = biological target: T2, monkey CD73 on CHOK1-cynoCD73 cells; experiment: flow cytometry on CHOK1-cynoCD73 cells; remark: listed apart in the source
[19] = biological target: T2, monkey CD73 on CHOK1-cynoCD73 cells; experiment: flow cytometry on CHOK1-cynoCD73 cells; remark: listed apart in the source
[20] = biological target: T1, human CD73 on SK-OV-3 cells (human …); experiment: flow cytometry on SK-OV-3 cells, anti-hFc-APC
[21] = biological target: T4, recombinant human CD73 protein; experiment: ELISA, recombinant human CD73 coated at 3 ug/mL
[22] = biological target: T3, recombinant monkey CD73 protein; experiment: ELISA, recombinant monkey CD73 coated at 3 ug/mL; remark: listed apart in the source

EC50 [1]: 23500 ng/mL
EC50 [2]: 33.6 ng/mL
EC50 [3]: 9.63 ng/mL
EC50 [4]: 4.12 ng/mL
EC50 (read off the curve) [4]: 2 ng/mL
EC50 (read off the curve) [5]: 100 ng/mL
EC50 (read off the curve) [6]: 20 ng/mL
EC50 (read off the curve) [7]: 30 ng/mL
Molecule: MEDI-9447 of AstraZeneca(AZ)/Medimmune (antibody)

IC50 of inhibition of CD73 enzyme activity on SK-OV-3 cells [8]: 371 ng/mL
IC50 of inhibition of CD73 enzyme activity on CHOK1-cynoCD73 cells [9]: 990 ng/mL
EC50 [10]: 0.588 ng/mL
EC50 [11]: 0.0999 ng/mL
EC50 [12]: 217 ng/mL
EC50 (read off the curve) [13]: ~200 ng/mL
Kd [14]: 0.0865 nM
koff [14]: 6.04e-05 s⁻¹
kon [14]: 698000 M⁻¹ s⁻¹
B1: CQ137 antibody protein (human mouse chimeric anti-CD73 full-length antibody) (antibody, human IgG1, kappa, V domains shown)
VH: EVQLQQSGPELVKPGASVKISCKASGYSFTGYYIHWVKQSHVKSLEWIGRINPYNGATTYNQNFKDKASLTVDKSSSTAYMELHSLTSEDSAVYYCARFHYGAPDYWGQGTTLTVSS
VL: DILMTQSPSSMYASLGERVTITCKASQDINTYLTWFQQKPGKSPKTLIYRANILVDGVPSRFSGSGSGQDYSLTISSLEFEDMGIYYCLQYDEFPLTFGAGTKLELKR

EC50 [15]: 267 ng/mL
EC50 [16]: 315 ng/mL
EC50 [17]: 3.71 ng/mL
EC50 [18]: 7.69 ng/mL
EC50 (read off the curve) [19]: ~8 ng/mL
EC50 (read off the curve) [20]: ~4 ng/mL
EC50 (read off the curve) [21]: ~300 ng/mL
EC50 (read off the curve) [22]: ~300 ng/mL
B2: humanized CQ137 monoclonal antibody (137-6) (antibody, V domains shown)
VH: QVQLVQSGAEVKKPGSSVKVSCKASGYSFTGYYIHWVRQAPGQGLEWMGRINPYNGATTYNQNFKDRVTITVDKSTSTAYMELSSLRSEDTAVYYCARFHYGAPEYWGQGTLVTVSS
VL: DIQMTQSPSSLSASVGDRVTITCKASQDINTYLTWYQQKPGKAPKTLIYRANILVDGVPSRFSGSGSGTDFTLTISSLQPEDFATYYCLQYAEFPLTFGGGTKVEIKR
